{"source": "patent US11344542B2", "about": "“Treatment of aging-associated disease with modulators of leukotriene A4 hydrolase” (Alkahest, Inc., priority 2018, dated 2022)", "molecules": {"B1": {"name": "recombinant human LTA4H: Recombinant human LTA4H (Bio-techne, 4008-SN), leukotriene A4 hydrolase enzyme, dosed by tail vein i.v. injection (protein, UniProt P09960 2-611, looked up)", "Leukotriene A-4 hydrolase": "PEIVDTCSLASPASVCRTKHLHLRCSVDFTRRTLTGTAALTVQSQEDNLRSLVLDTKDLTIEKVVINGQEVKYALGERQSYKGSPMEISLPIALSKNQEIVIEISFETSPKSSALQWLTPEQTSGKEHPYLFSQCQAIHCRAILPCQDTPSVKLTYTAEVSVPKELVALMSAIRDGETPDPEDPSRKIYKFIQKVPIPCYLIALVVGALESRQIGPRTLVWSEKEQVEKSAYEFSETESMLKIAEDLGGPYVWGQYDLLVLPPSFPYGGMENPCLTFVTPTLLAGDKSLSNVIAHEISHSWTGNLVTNKTWDHFWLNEGHTVYLERHICGRLFGEKFRHFNALGGWGELQNSVKTFGETHPFTKLVVDLTDIDPDVAYSSVPYEKGFALLFYLEQLLGGPEIFLGFLKAYVEKFSYKSITTDDWKDFLYSYFKDKVDVLNQVDWNAWLYSPGLPPIKPNYDMTLTNACIALSQRWITAKEDDLNSFNATDLKDLSSHQLNEFLAQTLQRAPLPLGHIKRMQEVYNFNAINNSEIRFRWLRLCIQSKWEDAIPLALKMATEQGRMKFTRPLFKDLAAFDKSHDQAVRTYQEHKASMHPVTAMLVGKDLKVD"}}, "tested_on": "8-week old (young) wild-type (C57BL/6) mice", "test": "Open field test in young mice treated with recombinant human LTA4H protein", "assay_type": "in vivo, mouse", "description": "The open field test was used to evaluate general locomotor activity and exploratory behavior in a novel environment. It consisted of a square arena (50 cm×50 cm). Mice were brought to the experimental room for at least 30 min of acclimation to the experimental room conditions (dim lighting) prior to testing. Mice were placed in the center of the arena and tracked using automated software (CleverSys or San Diego Instruments) for 15 min. Total distance traveled, average velocity, and time spent in the peripheral and center zones were analyzed.\nRecombinant human LTA4H (Bio-techne, 4008-SN) was buffer-exchanged into sterile PBS and dosed at 4.6 ug/150 uL by tail vein i.v. injection. SC-57461A (Cayman Chemical, 423169-68) stock solution was prepared at 10 mg/mL in DMSO. Stock solution was diluted into sterile PBS immediately prior to p.o. dosing to a final concentration of 10% DMSO and 1 mg/mL SC-57461A. Mice were p.o. dosed at 5 mg/kg. CP-105,696 (Sigma, PZ0363), Pinostilbene hydrate (Sigma, SML0098), and Montelukast (Cayman Chemical, 10008318) stock solutions were prepared at 30 mg/mL in EtOH/Solutol. Stock solutions were diluted into sterile PBS immediately prior to p.o. dosing to a final concentration of 10% EtOH and […] inhibitor. Administration to mice was performed p.o. at a dose of 10 mg/kg. Vehicle was 10% EtOH/Solutol and was dosed p.o. at a volume of 150 uL.\nYoung, 8-week old wild-type (WT; C57BL/6) mice were homogenized between groups by body weight. Following group determination, mice were injected intraperitoneally (IP) with BrdU (5-bromo-2′-deoxyuridine) formulated in PBS (phosphate buffered saline) at a final concentration of 10 mg/mL dosed at 150 mg/kg for 5 days Immediately following the BrdU dosing, group 1 was injected intravenously (IV) with PBS control and group 2 with recombinant human LTA4H protein daily for 7 consecutive days. One week after the completion of LTA4H administration, in week 3, mice in both treatment groups were injected IP with EdU (5-ethynyl-2′-deoxyuridine) formulated in PBS at a final concentration of 10 mg/mL and dosed at 50 mg/kg for 5 days. Behavioral assays were executed in week 5 and 6, and animals were sacrificed, and tissues collected immediately after completion of behavior testing in week 6. FIG. 3 depicts the treatment paradigm and injection timing for the study.\nThe initial study in young, 8-week old wild-type (WT; C57BL/6) mice was repeated in a second cohort of mice with additional timepoints and readouts. Mice were homogenized between 3 treatment groups by body weight. Group 1 (Vehicle) was injected intravenously (IV) with PBS control 3 times per week for 6 weeks, group 2 (LTA4H Pulse) with recombinant human LTA4H protein daily for 7 consecutive days, and group 3 (LTA4H Continuous) with recombinant human LTA4H protein 3 times per week for 6 weeks. In week 4 after the initiation of dosing, mice in all treatment groups were injected IP with BrdU (5-bromo-2′-deoxyuridine) formulated in PBS (phosphate buffered saline) at a final concentration of 10 mg/mL dosed at 150 mg/kg for 5 days. Behavioral assays were executed in week 5 and 6, and animals were sacrificed, and tissues collected immediately after completion of behavior testing in week 6. FIG. 10 depicts the treatment paradigm and injection timing for the study.", "key": {"[1]": {"conditions": "paradigm 1: IV daily for 7 consecutive days, vs PBS, tested week 5-6"}, "[2]": {"conditions": "paradigm 2: continuous dosing, IV 3 times per week for 6 weeks"}}}
{"molecule": "B1", "values": [{"measurement": "anxiety as measured by percent time spent in periphery or center of the open field", "setting": "paradigm 1: IV daily for 7 consecutive days, vs PBS", "value": "not affected"}, {"measurement": "average velocity in open field", "setting": "[1]", "value": "no change"}, {"measurement": "total distance travelled in open field", "setting": "[1]", "value": "no change"}, {"measurement": "average velocity in open field", "setting": "[2]", "value": "significant reduction"}, {"measurement": "distance traveled in open field", "setting": "[2]", "value": "significant reduction"}, {"measurement": "anxiety as measured by percent time spent in periphery or center of the open field", "setting": "paradigm 2: either dosing paradigm (pulse or continuous)", "value": "not affected"}, {"measurement": "general locomotion as measured by total distance travelled and average velocity", "setting": "paradigm 2: pulse dosing, IV daily for 7 consecutive days", "value": "impaired with continuous dosing of LTA4H, but not with pulse dosing"}]}
